According to the supplement of paper PMC10567573:

B1: SPOPL (parent)
chain: PDDKLTLFCEVSVVQDSVNISGHT
B2: NCK2 (parent)
chain: YTGPSSSGRFAGREWYYGNVTRHQ

Variants of: B1
Assay: protein stability index of a GFP-peptide fusion (GPS, HEK-293T) (PSI 1-6); higher = more stable
Conditions: c terminus: a fixed tail appended
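Further: lentivirally expressed fusions sorted by FACS into six bins by GFP to DsRed ratio, PSI derived from sequencing read proportions per bin multiplied by bin number.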

Protein stability index of substitutions, site by site:
T24: K 3.16; F 1.74; S 2.38; H 2.4; Q 2.06; I 2.27; D 2.46; W 3.64; E 3.45; P 3.77; M 2.39; A 1.54; N 2.97; G 1.51
I20: V 2.55; W 2.04; Y 2.18
H23: L 1.69; N 2.6; G 2.01; R 2.71; S 2.18; Q 2.3; D 3.06; C 2; A 2; P 2.26; E 3.21; T 2.44; V 2.03; K 2.21; W 5.02; I 2.41
S21: G 2.74; D 3.2; Q 3.3; Y 1.85; I 3.25; N 2.2; M 2.48; R 2.47; P 2.29; C 1.5; H 1.61; E 2.44; L 1.68; T 3.16; A 2.29
G22: N 1.98; F 3.28; S 2.05; K 2.1; D 2.87; T 3.74; H 1.66; A 1.08; Q 2.97; E 3.28; P 2.07; C 2.59

Variants of: B2
Assay: as above
Conditions: c terminus: a fixed tail appended

Protein stability index of substitutions, site by site:
T21: G 1.45; F 2.53; P 2.06; H 1.9; K 1.74; N 2.4; R 1.68; M 2.29; V 2.64; Y 1.91; Q 1.78
R9: F 4.5; C 2.09; S 1.38; Y 1.73; V 1.85; I 3.13; N 1.69; M 3.36; Q 1.81; H 1.45; D 1.81; K 1.46; E 2.5; A 1.56; G 2.17
R22: Q 2.17; F 2.65; L 1.56; V 2.18; P 1.14; Y 2.17; G 2.62; M 1.79
P4: W 1.71; C 3.83; T 1.9; A 2.13; D 1.56; Y 3.08; L 1.64; N 2.32; V 1.36; Q 1.26; I 1.03; M 2.37; F 1.82
F10: V 2.13; A 2.14; N 2.13; P 2.42; T 2.2; S 2.11; W 3.07; R 1.66; D 1.93; C 1.44; I 1.89
S5: Y 3.23; E 1.62; L 2.56; K 1.7; Q 1.97; D 1.96; A 2.6; W 3.56; V 1.4; N 1.95; G 2.46; H 1.92; M 2.96
V20: A 1.73; I 2.71; F 1.59; Q 1.83; E 1.67; G 2.57; T 1.75; D 2.92; R 2.42
Y17: Q 1.97; G 2.83; D 2.64; V 1.89; I 3.41; E 2.56; T 1.36; M 1.87; H 2.06; C 1.77; P 1.76
Q24: I 2.01; R 1.55; H 1.85; P 2.07; E 1.41; V 2.17; F 1.59; T 1.18; L 2.07; G 1.56; Y 1.72; M 2.44
Y1: L 2.3; C 2.01; Q 2.96; M 2.57; E 3.28; W 2.66; G 2.46; T 3.08; N 2.73
W15: E 2.52; K 2.22; Y 2.23; I 1.71; A 2.49; P 2.36; D 2.83; F 2.19
G18: M 1.55; W 2.18; E 1.44; H 2.11; Y 2.03; C 2.35; F 1.6; D 2.39; L 3; T 1.04; K 2.64; P 1.89; A 1.46
Y16: S 2.33; F 2.26; N 2.13; Q 2.37; K 2.06; W 2.29; T 2.45
A11: Q 2.21; S 2.2; I 1.55; T 2.3; H 2; F 4.19; K 1.32; W 3.03; N 2.34; R 1.85; G 2.44; D 1.95
S6: D 1.91; Q 2.22; I 1.96; E 1.49; R 1.46; T 1.93; F 3.15; V 1.58; Y 2.13; M 2.35; A 2.09
T2: Q 1.5; D 2.63; G 2.44; Y 2.67; E 2.82; W 2.35; R 1.67; C 2.06; I 1.79; H 1.88; L 1.7; N 2.19; S 1.37; F 2.04
N19: F 2.01; C 1.55; G 1.63; S 1.44; H 2.12; W 3.18; D 1.76; V 1.61; P 2.58; L 2.05; Y 1.91; I 1.53; K 1.38
G8: S 2.22; L 3.02; K 1.82; M 1.68; N 1.71; R 2.3; A 1.25; F 2.04; I 1.59; Q 1.64; H 1.51; V 1.48; P 1.66
S7: Y 2.02; M 1.58; R 1.82; H 1.85; L 2.11; A 1.71; F 1.59; P 2.18; G 1.82
G3: W 2.99; E 2.34; Q 1.78; P 1.56; N 2.17; Y 2.13; F 2.25; A 2.23; D 2.38; I 2.07; V 2.25; R 2.17
R13: D 2.09; Q 2.44; P 1.97; N 1.91; Y 1.94; E 2; I 2.64; T 1.81; K 2.02; A 1.61; H 2.75; L 1.7; M 1.63; S 2.03; W 2.01; V 2.44
H23: G 1.88; Y 1.42; L 2.81; W 2.71; T 1.46; I 2; A 2.86; F 1.79; K 2.33; N 2.09; V 1.56; D 2.52; R 1.53
E14: V 2.56; P 1.87; H 2.69; D 1.4; W 1.92; I 1.58; L 1.68; A 1.57; R 2.58
G12: Q 2.09; N 3.14; D 2.44; H 2.26; K 2.32; F 2.45; M 1.75; S 1.52; R 1.98; E 1.49; L 2.25; Y 2.1
